T1: GST–PAH1 (amino acids 34–108) (mouse (as mSin3b), UniProt Q62141 34-108)
T1 sequence (looked up): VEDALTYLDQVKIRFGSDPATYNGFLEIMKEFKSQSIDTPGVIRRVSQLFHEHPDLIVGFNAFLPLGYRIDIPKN


The binders below were run against T1, GST–PAH1 (amino acids 34–108) (assay: pull-down).
EGDWLFFVLLVGLL [protG-P1-1 (P1-1 fused to the GB1 domain of streptococcal protein G)]: binds.
SAAMGSAEFEALAALLFLSEE [protG-P1-8 Val13 to alanine]: binds.
SAAMGSAEFEAAVALLFLSEE [protG-P1-8 Leu12 to alanine]: binds.
SAAMGSAEFEALVALLFLSEE [protG-P1-8 (P1-8 fused to the GB1 domain of streptococcal protein G)]: binds.
SAAMGSAEAEALVALLFLSEE [protG-P1-8 Phe9 to alanine]: binds.

From PMC1557813 (Nucleic Acids Research, 2006)
